Consider 125 sequences from the supplement of paper PMC9112550, “Optimization of the antimicrobial peptide Bac7 by deep mutational scanning” (BMC Biology, 2022).

This series relates to Escherichia coli TOP10. In words: shrunken log2 fold change of peptide-encoding DNA abundance (4.5 h post-induction vs induction); higher = less antimicrobial activity (less host growth inhibition). Particulars: time post-induction: 4.5 h; library: site-saturation at positions 5, 18, 19, 20.
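Further: peptides expressed intracellularly from a pBAD plasmid library in pooled LB shake-flask culture, induced with 0.3% L-arabinose, DNA abundance read by NGS, three biological replicates, DESeq2 with apeglm shrinkage.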

Consider RRIRERPPRLPRPRPRPSMGPRP, for which the “shrunken log2 fold change” value was -0.817.

Turning to RRIRQRPPRLPRPRPRPLMPPRP, the “shrunken log2 fold change” value was -0.0453. The result for RRIRTRPPRLPRPRPRPFELPRP reads -0.0363; that for RRIRDRPPRLPRPRPRPMIKPRP, -0.222; that for RRIRHRPPRLPRPRPRPNGNPRP, -0.617. The result for RRIRARPPRLPRPRPRPTVFPRP reads 0.0832; that for RRIRQRPPRLPRPRPRPGWIPRP, 0.179; that for RRIRARPPRLPRPRPRPHGPPRP, 0.321.

As for RRIRWRPPRLPRPRPRPQMLPRP, the “shrunken log2 fold change” value is 0.313. The result for RRIRGRPPRLPRPRPRPMHIPRP reads 1.77; that for RRIRNRPPRLPRPRPRPQELPRP, -0.14. The result for RRIRLRPPRLPRPRPRPWRVPRP reads 0.488; that for RRIRPRPPRLPRPRPRPEQRPRP, 0.124; that for RRIRIRPPRLPRPRPRPLIRPRP, -0.508. The figure for RRIRTRPPRLPRPRPRPQERPRP is 0.00298. With RRIRARPPRLPRPRPRPFINPRP, the “shrunken log2 fold change” value is -0.356.

As for RRIRQRPPRLPRPRPRPEYSPRP, the “shrunken log2 fold change” value was -0.191. The result for RRIRKRPPRLPRPRPRPGHCPRP reads 0.00694. The figure for RRIRLRPPRLPRPRPRPTKFPRP is -0.0571. The result for RRIRPRPPRLPRPRPRPICHPRP reads -0.0574. Regarding RRIRDRPPRLPRPRPRPPPNPRP, the “shrunken log2 fold change” value is 0.84. On to RRIRRRPPRLPRPRPRPEPFPRP, for which the “shrunken log2 fold change” value was -0.0448. The figure for RRIRIRPPRLPRPRPRPQLPPRP is -0.0273; for RRIRTRPPRLPRPRPRPTITPRP it is 0.184; for RRIRMRPPRLPRPRPRPSACPRP it is 1.99.

RRIRPRPPRLPRPRPRPYTDPRP: the “shrunken log2 fold change” value is -0.562. The result for RRIRARPPRLPRPRPRPGSGPRP reads 0.576. The result for RRIRERPPRLPRPRPRPSPHPRP reads -0.229; that for RRIRCRPPRLPRPRPRPCEQPRP, -0.222; that for RRIRNRPPRLPRPRPRPHLSPRP, -0.259. The figure for RRIRYRPPRLPRPRPRPGMHPRP is -0.339; for RRIRNRPPRLPRPRPRPACQPRP it is -0.0318; for RRIRERPPRLPRPRPRPPWQPRP it is 0.0988.

Regarding RRIRQRPPRLPRPRPRPHNSPRP, the “shrunken log2 fold change” value was -0.596. The result for RRIRMRPPRLPRPRPRPLLVPRP reads 0.199; that for RRIRMRPPRLPRPRPRPTETPRP, 0.511; that for RRIRSRPPRLPRPRPRPSTYPRP, -0.405.

RRIRHRPPRLPRPRPRPIWCPRP: the “shrunken log2 fold change” value is -0.0133. The result for RRIRHRPPRLPRPRPRPCLWPRP reads -0.0157; that for RRIRDRPPRLPRPRPRPEHKPRP, 0.0114.

RRIRMRPPRLPRPRPRPDHHPRP: the “shrunken log2 fold change” value is -0.111. The result for RRIRHRPPRLPRPRPRPHMYPRP reads -0.0666; that for RRIRWRPPRLPRPRPRPMEKPRP, 0.0685. The result for RRIRNRPPRLPRPRPRPHKIPRP reads -0.657; that for RRIRNRPPRLPRPRPRPIITPRP, -0.14.

Turning to RRIRVRPPRLPRPRPRPTYQPRP, the “shrunken log2 fold change” value was -0.388. The result for RRIRYRPPRLPRPRPRPTCDPRP reads -0.424; that for RRIRLRPPRLPRPRPRPGQHPRP, -0.0142; that for RRIRKRPPRLPRPRPRPDMWPRP, 0.245. The figure for RRIRKRPPRLPRPRPRPLVPPRP is 0.516. The figure for RRIRIRPPRLPRPRPRPVNDPRP is -0.00973; for RRIRDRPPRLPRPRPRPVVGPRP it is 0.642; for RRIRSRPPRLPRPRPRPYCQPRP it is -0.164. Turning to RRIRMRPPRLPRPRPRPDADPRP, the “shrunken log2 fold change” value amounted to 3.36. The figure for RRIRHRPPRLPRPRPRPILTPRP is -0.201.

Take RRIRIRPPRLPRPRPRPHRLPRP: the “shrunken log2 fold change” value is -0.122.

Turning to RRIRVRPPRLPRPRPRPWTHPRP, the “shrunken log2 fold change” value is -0.104. The figure for RRIRPRPPRLPRPRPRPSMCPRP is -0.0117. The result for RRIRWRPPRLPRPRPRPCTSPRP reads -0.174. The figure for RRIRPRPPRLPRPRPRPADNPRP is -0.428; for RRIRLRPPRLPRPRPRPHQTPRP it is 0.001; for RRIRFRPPRLPRPRPRPHSKPRP it is -0.327. On to RRIRERPPRLPRPRPRPQAGPRP, for which the “shrunken log2 fold change” value worked out at 0.275. The figure for RRIRVRPPRLPRPRPRPKLNPRP is -0.212; for RRIRSRPPRLPRPRPRPTPYPRP it is -0.26.

Take RRIRERPPRLPRPRPRPMLPPRP: the “shrunken log2 fold change” value is -0.397.

With RRIRCRPPRLPRPRPRPYANPRP, the “shrunken log2 fold change” value is -0.0471. The result for RRIRIRPPRLPRPRPRPWSDPRP reads -0.0344. In the case of RRIRCRPPRLPRPRPRPHSDPRP, the “shrunken log2 fold change” value was -0.412. The figure for RRIRERPPRLPRPRPRPYENPRP is 0.0288; for RRIRARPPRLPRPRPRPVQNPRP it is 0.814; for RRIRNRPPRLPRPRPRPCNDPRP it is -0.274. The result for RRIRSRPPRLPRPRPRPHISPRP reads -0.035; that for RRIRYRPPRLPRPRPRPMRDPRP, -0.151.

With RRIRNRPPRLPRPRPRPSLRPRP, the “shrunken log2 fold change” value is -0.00371. Take RRIRGRPPRLPRPRPRPDWHPRP: the “shrunken log2 fold change” value is 0.238.

Regarding RRIRLRPPRLPRPRPRPRHNPRP, the “shrunken log2 fold change” value is -0.521. In the case of RRIRIRPPRLPRPRPRPMHMPRP, the “shrunken log2 fold change” value was -0.0247.

For the sequence RRIRMRPPRLPRPRPRPKAHPRP, the “shrunken log2 fold change” value is 0.892. The figure for RRIRWRPPRLPRPRPRPQADPRP is -0.104; for RRIRERPPRLPRPRPRPEAVPRP it is 0.292.

Take RRIRLRPPRLPRPRPRPQIEPRP: the “shrunken log2 fold change” value is -0.155. The figure for RRIRRRPPRLPRPRPRPGSTPRP is 0.1. The result for RRIRRRPPRLPRPRPRPVYAPRP reads 0.21. The result for RRIRDRPPRLPRPRPRPETTPRP reads 0.0986; that for RRIRCRPPRLPRPRPRPRWKPRP, 0.847; that for RRIRIRPPRLPRPRPRPQGPPRP, -0.0152. Consider RRIRRRPPRLPRPRPRPYKWPRP, for which the “shrunken log2 fold change” value was -0.138. The result for RRIRWRPPRLPRPRPRPQHPPRP reads 0.0134. The result for RRIRARPPRLPRPRPRPCTAPRP reads -0.147; that for RRIRSRPPRLPRPRPRPQLPPRP, 0.53. The result for RRIRARPPRLPRPRPRPVRTPRP reads 1.06; that for RRIRPRPPRLPRPRPRPSWHPRP, 0.182; that for RRIRQRPPRLPRPRPRPHGEPRP, 0.215. Regarding RRIRERPPRLPRPRPRPGWYPRP, the “shrunken log2 fold change” value was -0.0987.

Take RRIRTRPPRLPRPRPRPDKTPRP: the “shrunken log2 fold change” value is -0.108. The figure for RRIRKRPPRLPRPRPRPKENPRP is 0.189.

Regarding RRIRHRPPRLPRPRPRPEGRPRP, the “shrunken log2 fold change” value is -0.114.

As for RRIRQRPPRLPRPRPRPIWNPRP, the “shrunken log2 fold change” value was -0.183.

With RRIRARPPRLPRPRPRPCRLPRP, the “shrunken log2 fold change” value is -0.0461. The figure for RRIRDRPPRLPRPRPRPQSTPRP is -0.466; for RRIRLRPPRLPRPRPRPNNMPRP it is -0.703; for RRIRGRPPRLPRPRPRPPLEPRP it is 1.2. The figure for RRIRGRPPRLPRPRPRPCSAPRP is 1.58; for RRIRVRPPRLPRPRPRPWDYPRP it is -0.0898; for RRIRWRPPRLPRPRPRPLHAPRP it is 0.499.

Consider RRIRKRPPRLPRPRPRPETTPRP, for which the “shrunken log2 fold change” value was 1.53. Consider RRIRLRPPRLPRPRPRPALMPRP, for which the “shrunken log2 fold change” value stood at 0.306. The figure for RRIRSRPPRLPRPRPRPHPLPRP is -0.00402; for RRIRPRPPRLPRPRPRPQYYPRP it is -0.422. The figure for RRIRPRPPRLPRPRPRPEWIPRP is -0.0215; for RRIRGRPPRLPRPRPRPNYIPRP it is -0.099.

On to RRIRTRPPRLPRPRPRPSENPRP, for which the “shrunken log2 fold change” value is -0.0993.

As to RRIRCRPPRLPRPRPRPCKVPRP, the “shrunken log2 fold change” value is -0.147.

With RRIRHRPPRLPRPRPRPEHCPRP, the “shrunken log2 fold change” value was determined as 0.0155. The figure for RRIRERPPRLPRPRPRPATVPRP is -0.2. The result for RRIRFRPPRLPRPRPRPLDTPRP reads 0.0445; that for RRIRKRPPRLPRPRPRPMMTPRP, 0.452. On to RRIRGRPPRLPRPRPRPIHRPRP, for which the “shrunken log2 fold change” value worked out at 0.0525. RRIRHRPPRLPRPRPRPYCIPRP: the “shrunken log2 fold change” value is -0.21. Regarding RRIRQRPPRLPRPRPRPNHKPRP, the “shrunken log2 fold change” value is -0.493. The result for RRIRVRPPRLPRPRPRPSDLPRP reads -0.196; that for RRIRARPPRLPRPRPRPNNFPRP, -0.236; that for RRIRRRPPRLPRPRPRPMTMPRP, 0.0735. The figure for RRIRARPPRLPRPRPRPPDFPRP is 0.708.
